The experiment concerns the target T1, full-length Human recombinant CHERP with an N-terminal HIS (human, UniProt Q8IWX8 1-916).
T1 sequence: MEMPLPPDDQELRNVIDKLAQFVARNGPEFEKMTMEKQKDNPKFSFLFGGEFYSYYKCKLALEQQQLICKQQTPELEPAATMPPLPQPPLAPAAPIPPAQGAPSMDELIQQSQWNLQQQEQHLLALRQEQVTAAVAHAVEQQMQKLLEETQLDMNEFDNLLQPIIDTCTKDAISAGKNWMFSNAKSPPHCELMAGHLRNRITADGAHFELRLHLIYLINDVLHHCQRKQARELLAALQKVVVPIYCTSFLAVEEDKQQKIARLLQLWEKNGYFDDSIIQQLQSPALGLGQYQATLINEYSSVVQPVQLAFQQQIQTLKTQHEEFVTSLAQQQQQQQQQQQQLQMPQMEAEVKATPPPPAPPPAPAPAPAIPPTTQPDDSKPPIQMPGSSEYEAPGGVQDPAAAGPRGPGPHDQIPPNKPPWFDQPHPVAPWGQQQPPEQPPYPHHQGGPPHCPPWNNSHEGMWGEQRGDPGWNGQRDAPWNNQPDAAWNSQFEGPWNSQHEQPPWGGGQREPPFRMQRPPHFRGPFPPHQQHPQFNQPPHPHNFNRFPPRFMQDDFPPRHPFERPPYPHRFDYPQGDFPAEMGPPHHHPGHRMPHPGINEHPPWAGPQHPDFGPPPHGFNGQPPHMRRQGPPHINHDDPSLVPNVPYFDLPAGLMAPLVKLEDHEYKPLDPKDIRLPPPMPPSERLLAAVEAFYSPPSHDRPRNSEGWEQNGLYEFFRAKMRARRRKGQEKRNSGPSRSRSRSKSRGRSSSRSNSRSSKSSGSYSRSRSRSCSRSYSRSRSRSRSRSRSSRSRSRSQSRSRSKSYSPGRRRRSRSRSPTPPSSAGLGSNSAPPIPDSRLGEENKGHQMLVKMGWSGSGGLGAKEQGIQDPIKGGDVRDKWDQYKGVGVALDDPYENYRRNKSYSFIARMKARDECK
Nature of the experiment: pull-down.

B1: Full-length Human RBM17 recombinant protein with an N-terminal GST tag (natural protein)
chain: MSLYDDLGVETSDSKTEGWSKNFKLLQSQLQVKKAALTQAKSQRTKQSTVLAPVIDLKRGGSSDDRQIVDTPPHVAAGLKDPVPSGFSAGEVLIPLADEYDPMFPNDYEKVVKRQREERQRQRELERQKEIEEREKRRKDRHEASGFARRPDPDSDEDEDYERERRKRSMGGAAIAPPTSLVEKDKELPRDFPYEEDSRPRSQSSKAAIPPPVYEEQDRPRSPTGPSNSFLANMGGTVAHKIMQKYGFREGQGLGKHEQGLSTALSVEKTSKRGGKIIVGDATEKDASKKSDSNPLTEILKCPTKVVLLRNMVGAGEVDEDLEVETKEECEKYGKVGKCVIFEIPGAPDDEAVRIFLEFERVESAIKAVVDLNGRYFGGRVVKACFYNLDKFRVLDLAEQV
B1: the binding result is listed as “binds”.
